The target in one data set is NPT7 variant ES-443 (V3) (synthetic construct). As to the kind of experiment: cell_activity; ZsGreen reporter fluorescence in S. cerevisiae; reflects transcription and capping. The following applies: tags: SV40 NLS N-terminal.
Data set [1] deals with NPT7 v443 with NLS removed (synthetic construct). Kind of data set: cell_activity; ZsGreen reporter in HEK293T, 48 h, cytoplasmic. The following applies: tags: NLS removed.

This note sets out measurements from patent US20250283060 (BOARD OF REGENTS, THE UNIVERSITY OF TEXAS SYSTEM, published 2025).

B1: T7 promoter WT (dsDNA)
DNA 1: TAATACGACTCACTATA
DNA 2: TATAGTGAGTCGTATTA
Consider B1, for which the binding signal was 76 fold vs K282A control with NPT7 variant ES-443 (V3) and around 1.8 fold vs WT NPT7 in data set [1].
